The values that follow come from PMC2801285.

In the assay the target is CaV2.1 (full-length) (UniProt P54282).

Regarding “CaV2.1 N terminus (residues 1–100) (from UniProt P54282 1-100) (domain or fragment)”, the inhibition of peak IBa (CaV2.1/α2δ-2/β4) on co-expression in Xenopus oocytes is 37.9 % inhibition.

Take “CaV2.1 N terminus-CAAX (from UniProt P54282 1-100) (domain or fragment)”: the reduction of peak IBa (CaV2.1/α2δ-2/β4) on co-expression in Xenopus oocytes came out at 43.8 % reduction.
